From US20240190999A1 come the findings set out here.

The assay concerns the target human 4-1BB on primary human CD8 T cells (human) (UniProt Q07011). The assay is described as follows: cell-based or functional assay.

human 4-1BB on primary human CD8 T cells (human), sequence (Q07011 24-255 limits assumed): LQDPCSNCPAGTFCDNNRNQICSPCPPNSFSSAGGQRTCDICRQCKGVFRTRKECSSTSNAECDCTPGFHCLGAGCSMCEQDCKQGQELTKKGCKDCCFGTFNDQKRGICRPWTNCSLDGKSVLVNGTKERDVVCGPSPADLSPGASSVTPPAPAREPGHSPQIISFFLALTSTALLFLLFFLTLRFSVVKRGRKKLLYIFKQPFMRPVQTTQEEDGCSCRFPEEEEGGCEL

Anti-4-1BB mAb 20H4.9 (antibody) showed an EC50, IFNγ production by primary human CD8 T cells, antibody cross-linked via anti-Fc of 0.02 nM; an EC50, IFNγ production by primary human CD8 T cells, antibody soluble of 0.93 nM; an EC50, IFNγ production by primary human CD8 T cells, cross-linked via coated anti-Fc of 0.04 nM; an EC50, IFNγ production by primary human CD8 T cells, without Fc-cross-linking of 0.97 nM.

Turning to Anti-4-1BB mAb MOR-7480 (antibody), the EC50, IFNγ production by primary human CD8 T cells, Fc-mediated cross-linking worked out at 0.42 nM and the EC50, IFNγ production by primary human CD8 T cells, antibody cross-linked via anti-Fc is 0.21 nM.
